Reference: the supplement of paper PMC12042874
± gives the uncertainty stated by the source.

assay: amyloid nucleation score (Sup35N fusion, yeast selection) (log enrichment); library NNK2; higher = more nucleation; inactive = no reads after selection
In short: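 Plasmid inserts were Illumina-sequenced at input and output from psi-negative yeast expressing Sup35N fused to peptides of 20 random codons. The yeast were induced with 100 μM copper sulfate for 24 hours and grown 7 days at 30°C on medium lacking adenine and uracil, and sequences with under 100 input reads were excluded. Nucleation score is the DiMSum log enrichment of output over input reads, centred on the mode score of non-aggregating sequences.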

Substance | amyloid nucleation score
IVTLVSDAYSKLTRLMNSVS | -0.561 ± 0.23
IVVSKVLLIWFPLLRRGANL | 0.159 ± 0.49
IVVVLWTFFDG | -1.09 ± 0.55
IWESSIYLNEETNDCLEKL | inactive
IWLVQGTAFPGMLSGQGWLL | 0.147 ± 0.76
IWRAQTSWSSSMFTWAVGLR | 1.4 ± 0.33
IWRSRKLHDMYTVVRGVASD | 0.182 ± 0.56
IWVGSILTQSPVVDGYFRCR | 0.145 ± 0.35
IWVYFTQHRWRLGKNVGQSC | 0.586 ± 0.51
IYHLPNR | 5.988 ± 0.035
IYLVSNLMGYKCFLSNHLAR | 0.151 ± 0.32
IYNNLTCWSDASHGVCFGMD | 4.67 ± 0.058
IYSEDGRAMASMIHVSRKHG | 0.91 ± 0.43
KAEHVFFVYRGLTEVFASGL | inactive
KALAYAWLCISLYKDFGYYN | inactive
KAPRTIYPVVLQPAS | -0.484 ± 0.33
KAREWQVLVRCKKLTMKYSK | 8.227 ± 0.046
KCGRWPANAVYWHDTLSCAC | 0.231 ± 0.31
KCLDSFDMSDMYSR | -0.632 ± 1.1
KCLWWFWLQDRKKRVMCLTG | 0.771 ± 0.43
KCPSESMRKFF | 0.672 ± 0.53
KCTFMTDFMIIDEVMYWNRC | 1.35 ± 0.46
KCWYRH | 1.39 ± 0.1
KDFFSVVSH | 0.573 ± 0.66
KDLEFGRCIDDDYPLSRSF | 0.141 ± 0.46

Substance | amyloid nucleation score
KDRDNVTGNSVVVRLRRRVL | -0.296 ± 0.54
KEEVRSLFIGTFPKIFFGLH | 0.251 ± 0.46
KEGFPMIIDYEIGFTDLSGG | -1.43 ± 0.75
KELDLDFRCFQYYNVVVVPQ | 2.33 ± 0.091
KELRQSVVIM | 0.644 ± 0.35
KERELSTTECCTILCSVLFY | 6.852 ± 0.059
KFDLSCNPNSPGSLRYTLNN | inactive
KFFDRYMFTRGLHT | 7.819 ± 0.051
KFFFSCTTKFL | 3.06 ± 0.1
KFFLFDHNNNF | 0.699 ± 0.33
KFGVGSLLTSLGYATRSCYL | -0.771 ± 0.25
KFKATWYRNSFRAMPCVKPA | 0.042 ± 1.1
KFLGYQLPPRDSSSGTF | 0.066 ± 0.27
KFMARDLRTYFIALQPRCKD | 6.614 ± 0.05
KGCVLCNIFCRSKGVVGSTL | 8.737 ± 0.035
KGDGNRSDTDVFITHIFMYY | 6.336 ± 0.048
KGDRKKDCMPDLVYRKLSGV | 0.798 ± 0.67
KGFIIFSFSSAIR | 2.46 ± 0.1
KGGEVEGLSLR | -0.889 ± 0.63
KGIQYSTLVTRRFWMW | 3.68 ± 0.088
KGPTSLLYLVMCFMVLQQLR | -0.447 ± 0.78
KGRVVSCIWGSCPGTSGR | -0.235 ± 1.1
KGVCWVTICELHDW | -0.305 ± 0.48
KGVRVQDTNVGIWAGKWGVV | 0.883 ± 0.29
KGWNMHSPMRALQHAETVGT | 0.859 ± 0.3

Substance | amyloid nucleation score
KHIWAMNGCYSLLLKNPALV | -0.649 ± 1.1
KHMLASSFVTVPFVAPCFHF | inactive
KIAWLTLHLTMWFST | 0.329 ± 0.41
KICYWLRRASVYMLVVLGRP | -0.343 ± 0.49
KIMYVSQECSGADLLGLYFF | -0.747 ± 0.79
KINCLFISLGNRSRVVRTS | 0.681 ± 0.37
KIRNSGG | 0.747 ± 0.56
KIYERPAITDFGSQVD | -0.505 ± 0.21
KKRQCGMVGLNLVGQYLHSF | -1.3 ± 0.62
KKVYVSDTIWMDYNNS | 3.93 ± 0.064
KLACVEGTKWAASGIAPNV | 0.946 ± 0.2
KLALVDIGLVPVIAIMCWMS | 0.877 ± 0.14
KLFIRWVAWY | 0.113 ± 0.8
KLLKYLSNSFTHRVLCNHDD | inactive
KLMLSALFLKVPAIIGRYRW | 0.736 ± 0.8
KLMPLTTIPDEVWYFIGYRL | -0.501 ± 0.32
KLSSKDHRFYKVSMKRV | 0.247 ± 0.8
KLSSRYIYLYSRYEPSS | inactive
KLVMFVGIFSNT | 6.39 ± 0.085
KLYWGNWWCRGSLVDTI | 0.695 ± 0.66
KMCIAKKSWEGQLVILYMSA | -0.354 ± 0.48
KMGLRRFNFCARFEYRTSVA | -0.048 ± 0.25
KMSYVYP | -0.622 ± 0.41
KNLLVHNFACGR | 0.462 ± 0.74
KNNVCSHIPNLGSYYLF | 0.736 ± 0.8

Substance | amyloid nucleation score
KNSVVL | 0.275 ± 0.64
KNSYNVPEYLRLLLWGNGMC | inactive
KNTVKDGWRMMMDGCMNTHW | 0.259 ± 0.15
KNTYKQACWQAELHKGLLVG | 0.748 ± 0.17
KNYHCTLSWLWFMACFSGIP | 2.61 ± 0.15
KPFHLIKTWKQLLLEKGGPN | -0.157 ± 0.28
KPLCS | -0.58 ± 0.55
KPLNVHELIVSYEYYLLFCQ | inactive
KPVGPVYAS | -0.262 ± 0.48
KQENMPDSAVVYCRRWGSDM | 0.057 ± 0.76
KRFGNFMTLRTLRVT | 1.42 ± 0.14
KRIPSSWWFVGLVGITWRPA | 0.826 ± 0.29
KRSLNLLKGLIYL | -1.05 ± 1.1
KRTTLWTARSRLCERTLNCS | 0.324 ± 0.24
KRVLDSGFN | -0.845 ± 1
KRVSASDISSLYADVRIKE | -0.852 ± 0.76
KSCAVFYSSNYVSGSNYLFF | 6.369 ± 0.047
KSCGLLAYDT | inactive
KSIGTAGFDN | -0.846 ± 0.42
KSKRMVTMHKMNENTGLLGD | 0.543 ± 0.5
KTFMCSFSQHVKGSGVFLTS | -0.346 ± 0.49
KTIFGGWSARSGNISMPSWM | 0.267 ± 0.54
KTMWLLWINGLHMSSHFRSK | -0.006 ± 0.22
KTYEMTDQVIRKPYPL | 0.347 ± 0.25
KVFLWIMLWAMPHTSSGFKP | -0.305 ± 0.48

Substance | amyloid nucleation score
KVFRSVGMFVCP | 1 ± 0.29
KVFVAYGMAVMLFYICHSK | 4.561 ± 0.037
KVGVVNYTTSLRFAGRDSSL | 4.52 ± 0.091
KVLRCYGDHFHHANSRTCLR | -1.08 ± 0.76
KVSAPHCRLGFWCILC | inactive
KWDIIYNNDVGNLCVLVSN | -0.817 ± 1
KWGVAFNCSYNGVDNVNFWC | 6.807 ± 0.058
KWIRFWVKDAFRVGRCHIWG | 0.038 ± 0.5
KWNRWYVALCLVSV | 10.08 ± 0.03
KWVRLNKFNLPPHYSPPQTM | 1.42 ± 0.24
KYDVEGMQVSRNFY | -0.424 ± 0.79
KYFTVTDVSLY | 5.911 ± 0.028
KYLGLGAFCVTVDYQRVWDA | 0.879 ± 0.58
KYSAYWG | 0.518 ± 0.4
KYTCLVMAL | 1.11 ± 0.28
KYVALALERFMLAAHGTSLT | -0.235 ± 0.33
LAAGWGVLHELL | inactive
LAGSVTIPLPTCYSIMTSRP | 0.233 ± 0.77
LAGWRRK | 0.355 ± 0.36
LAGYSHTI | 0.406 ± 0.46
LAKGPSQDYGAVPHKVMFHS | 0.961 ± 0.58
LALSTCFYSWIVLAMFFHRK | 3.16 ± 0.11
LALWCTWEVRLIDESAMTTF | 0.467 ± 0.29
LANRPCWFLQRARAMV | 0.959 ± 0.74
LAQNEHTLVFILLTNGKS | 3.18 ± 0.046

Substance | amyloid nucleation score
LASNFGFHGLAADMDALWCY | -1.23 ± 0.78
LAWGNHRVLRWSAPHNIRSR | 0.93 ± 0.33
LCAWDWSGTRVR | 0.903 ± 0.67
LCEISRASPQGGDRDRAMGK | -0.018 ± 0.55
LCFYK | 0.388 ± 0.32
LCNKVL | 0.27 ± 0.27
LCTRHACNIYGPLPNAHLVR | 0.643 ± 0.31
LCVKVFRRFYRHVHIVHVSQ | -0.337 ± 0.4
LCVVY | -0.237 ± 0.35
LDCNDYRDVCVSGFYVCIEG | -0.597 ± 0.27
LDFALNCNSRFSLTQDS | 2.83 ± 0.13
LDILIAQALEVFSDQYCNY | -0.992 ± 0.42
LDLICMDLWFWTNTS | -0.006 ± 0.4
LDLLKNCCTASMPGSLVVGR | 0.369 ± 0.65
LDMRSRLHFDDCTRRGYLGM | -0.166 ± 0.65
LDMSQYYSSRVF | inactive
LDPKIRWLWK | 0.204 ± 0.6
LDRFLSMRLFLPYVTNLRNH | -0.431 ± 0.64
LDSLCG | 0.546 ± 0.57
LDWGCILVQ | 0.012 ± 0.43
LDYFFAAL | inactive
LEAYVGLLCLSGRLTFSGKC | 2.6 ± 0.1
LELWFGDWNRVMYSCSVDWG | -0.096 ± 0.5
LENLHTLC | inactive
LERECVENDGLGWSRLEYVR | 0.42 ± 0.33

Substance | amyloid nucleation score
LESMRRY | 1.42 ± 0.27
LEVCFWFRNSVTKVSMSACL | -1.06 ± 0.63
LEVTIMTRFVLMLMTLCFPS | -0.066 ± 0.36
LFAIGEVTAYSGRLFSFYTQ | 1.79 ± 0.26
LFEASPDAVTVSCDALGLGY | 0.324 ± 0.3
LFIVSDKTFYKGTGCSDFLV | -1.28 ± 1
LFLVTVFRCVFFSQGI | -1.9 ± 1.1
LFNLACLRGRKTVWITDKLT | 0.012 ± 0.5
LFPLI | 1.24 ± 0.44
LFRGRMPFPRDSEYLRNRWK | -0.287 ± 0.28
LFSYQYCVVRMVLFIRL | -0.588 ± 0.53
LFVLK | -0.843 ± 0.21
LFVSSDRHRSDESSGDACCL | -0.494 ± 0.76
LFWDLSY | -0.959 ± 0.36
LFYWLITENASNQTTMSVRE | -0.384 ± 0.54
LGAGTSWAWLNLTYSEGTYK | 0.27 ± 0.8
LGCHLVGLVNRGKNGGRISL | 0.315 ± 0.74
LGEYNINLMDGWEGRCRPVR | 0.728 ± 0.43
LGFSGNI | inactive
LGGRYDVVMLIYLQSALFMG | 0.285 ± 1
LGISLPIEVLSFSLSMARCI | -0.408 ± 0.45
